Source: patent publication US10543282B2, “Targeted peptide conjugates” (Marker Gene Technologies, Inc., priority 2014, dated 2020)
Non-standard residues stand in square brackets, D forms with d. Residues, ends and D or L forms follow the SMILES beside them. ξ: configuration not given here. *: point of attachment. X2 = Cn1cc(C2=C(c3ccc(NC(=O)CCCN4C(=O)CC(*)C4=O)cc3)C(=O)NC2=O)c2ccccc21; X1 = O=C(CCCN1C(=O)CC(*)C1=O)Nc1c(Br)cc(Br)cc1CN[C@H]1CC[C@H](O)CC1; ξC = NC(CS)C(=O)O; ξA = CC(N)C(=O)O

How the values were obtained:
[1] = system: lysosomal GCase in immortalized B-Lymphoblast cells derived from a Gaucher I patient (GM10870); experiment: Lysosomal GCase activity by flow cytometry with LysoLive fluorogenic GCase substrate; format: cell-based, human; details: 48 hours; for lysosomal GCase activity compared to native drug SB216763: 1.0-5.0 uM, FIG. 14; for lysosomal GCase activity, Ambroxol and its targeted derivative: multiple concentrations, FIG. 15
Protocol: Immortalized B-Lymphoblast cells derived from a Gaucher I patient (GM10870, CCR) were incubated overnight in a CO2 incubator at 37° C./5% CO2. Equal numbers of cells (50,000 cells/well) were transferred to individual wells of 96-well tissue culture plates and treated with the native drug NSC 95397 or the organelle targeted NSC 95397 derivatives (M2770, M2771) at multiple concentrations (0.5-10 uM) and incubated at 37° C./5% CO2 for 48 hours. A lysosomal-targeted fluorogenic GCase substrate (MarkerGene™ LysoLive™ Lysosomal β-Glucosidase Assay Kit, Product M2775) was then added to the wells according to the manufacturer's instructions to a final concentration of 5 uM and cells were incubated a further 16 hours. DRAQ7 (dead-cell stain) was then added to the cells to a final concentration of 3 uM and cells immediately analyzed using a BD Accuri C6 flow cytometer, capturing 10000 live cell events and the median fluorescence of the stained cell populations graphed as shown in FIG. 13.
Immortalized B-Lymphoblast cells derived from a Gaucher I patient (GM10870, CCR) were incubated overnight in a CO2 incubator at 37° C./5% CO2. Equal numbers of cells (50,000 cells/well) were transferred to individual wells of 96-well tissue culture plates and treated with native drug SB216763 or the organelle targeted SB216763 derivatives (M2747, M2748) at multiple concentrations (1.0-5.0 uM) and incubated at 37° C./5% CO2 for 48 hours. A lysosomal-targeted fluorogenic GCase substrate (MarkerGene™ LysoLive™ Lysosomal β-Glucosidase Assay Kit, Product M2775) was then added to the wells according to the manufacturer's instructions to a final concentration of 5 uM and cells were incubated a further 16 hours. DRAQ7 (dead-cell stain) was then added to the cells to a final concentration of 3 uM and all cell wells immediately analyzed using a BD Accuri C6 flow cytometer, capturing 10000 live cell events and the median fluorescence of the stained cell populations graphed as shown in FIG. 14.
Immortalized B-lymphoblast cells derived from a Gaucher I patient leukocytes (GM10870, CCR) were incubated overnight in a CO2 incubator at 37° C./5% CO2. Equal numbers of cells (50,000 cells/well) were transferred to individual wells of 96-well tissue culture plates and treated with the native drug Ambroxol or the organelle-targeted Ambroxol derivative (M2781) at the multiple concentrations shown and incubated at 37° C./5% CO2 for 48 hours. Following drug treatment, a lysosomal-targeted fluorogenic GCase substrate (MarkerGene™ LysoLive™ Lysosomal β-Glucosidase Assay Kit, Product M2775) was then added to the wells according to the manufacturer's instructions to a final concentration of 5 uM and cells were incubated a further 16 hours. DRAQ7 (dead-cell stain) was then added to the cells to a final concentration of 3 uM and cells immediately analyzed using a BD Accuri C6 flow cytometer, capturing 10000 live cell events and the median fluorescence of the stained cell populations graphed as shown in FIG. 15.

[2] = system: Glc-Cer and allied glycolipids in Gaucher patient cells; experiment: TLC analysis of the clearance of excess glycolipids after TPC treatment; format: cell-based, human; details: 10 uM final concentration, 3 days, FIG. 9
Protocol: A series of targeted pharmacological chaperone derivatives were compared for their abilities to affect glycolipid biosynthesis by 1D-TLC.
Primary Human Fibroblasts from Gaucher I (F0361999) patients were obtained from Istituto Giannina Gaslini (Genova, Italy). Primary Human Fibroblasts from a healthy donor (AG06173) and Gaucher I (GM00372A) patients were obtained from the Coriell Institute for Medical Research (Camden, N.J.). Cells were cultured in Minimum Essential Medium Eagle supplemented with 10% FCS.
Immortalized B-lymphocytes from healthy donor (GM14643), Gaucher I (GM10870, GM10874), and Gaucher II (GM08752) patients were obtained from the Coriell Institute for Medical Research.
Cell labeling solutions were prepared by diluting substrate stock solutions in the appropriate medium for the cell line (see above) without serum. TPC treatment solutions were prepared by diluting stock solutions in complete media appropriate for the cell line. Cells were treated with either the targeted pharmacological chaperones (10 uM final concentration), miglustat (10 uM) or no drug (control) for 3 days prior to all analyses. For lipid analyses cells were counted on a TC-10 Automated Cell Counter (Bio-Rad, Hercules, Calif.) harvested by centrifugation (800×g, 5 min.) and subjected to one PBS wash (1 mL per sample) and centrifugation as above. […]

Row | Structure (SMILES) | lysosomal GCase activity compared to native drug SB216763 [1] | lysosomal GCase activity, Ambroxol and its targeted derivative [1] | further results
1 | CC(=O)NC(CSC1CC(=O)N(CCCC(=O)Nc2ccc(C3=C(c4cn(C)c5ccccc45)C(=O)NC3=O)cc2)C1=O)C(=O)NC(Cc1ccccc1)C(=O)NC(Cc1ccccc1)C(=O)NC(CCCCN)C(=O)NC(CC(=O)O)C(=O)NC(CCC(=O)O)C(=O)NC(CC(C)C)C(=O)O (stereo not drawn) [M2747] (Ac-C(X2)FFKDEL-OH; configuration not given here) | increased lysosomal GCase activity in lysosomes compared to the native drug | – | –
2 | Nc1c(Br)cc(Br)cc1CNC1CCC(O)CC1 (stereo not drawn) [Ambroxol, 4-(((2-Amino-3,5-dibromophenyl)methyl)amino)cyclohexanol, reference compound] | – | slightly inhibitory toward lysosomal GCase activity | –
3 | CCCCN1C[C@H](O)[C@@H](O)[C@H](O)[C@H]1CO [miglustat, N-butyl-deoxynojirimycin] | – | – | effect on glycolipid biosynthesis / clearance of excess glycolipids (Glc-Cer and allied glycolipids), 1D-TLC [2]: moderate effect
4 | CC(=O)NC(CSC1CC(=O)N(CCCC(=O)Nc2ccc(C3=C(c4cn(C)c5ccccc45)C(=O)NC3=O)cc2)C1=O)C(=O)NCC(=O)NCC(=O)NCC(=O)NCC(=O)NCC(=O)NC(C)C(=O)O (stereo not drawn) [M2749] (Ac-C(X2)GGGGGA-OH; configuration not given here) | equivalent or reduced lysosomal staining/drug efficacy than native drug | – | –
5 | CC(C)CC(NC(=O)C(CCCNC(=N)N)NC(=O)C(CCC(N)=O)NC(=O)C(Cc1ccc(O)cc1)NC(=O)C(CC(=O)O)NC(=O)C(CO)NC(=O)C(C)NC(=O)CN)C(=O)NCC(=O)NC(CSC1CC(=O)N(CCCC(=O)Nc2ccc(C3=C(c4cn(C)c5ccccc45)C(=O)NC3=O)cc2)C1=O)C(=O)O (stereo not drawn) [M2748] (H-GASDYQRLGC(X2)-OH; configuration not given here) | increased lysosomal GCase activity in lysosomes compared to the native drug | – | –
6 | CC(=O)NC(CSC1CC(=O)N(CCCC(=O)Nc2c(Br)cc(Br)cc2CN[C@H]2CC[C@H](O)CC2)C1=O)C(=O)NCC(=O)NCC(=O)NCC(=O)NCC(=O)NCC(=O)NC(C)C(=O)O (stereo partly drawn) [M2781] (Ac-[ξC](X1)GGGGG[ξA]-OH) | – | increased lysosomal GCase activity | –
